# B1: Flagellar protein FliT (Salmonella typhimurium), P0A1N2 (parent)
# chain: MTSTVEFINRWQRIALLSQSLLELAQRGEWDLLLQQEVSYLQSIETVMEKQTPPGITRSIQDMVAGYIKQTLDNEQLLKGLLQQRLDELSSLIGQSTRQKSLNNAYGRLSGMLLVPDAPGAS
# partner: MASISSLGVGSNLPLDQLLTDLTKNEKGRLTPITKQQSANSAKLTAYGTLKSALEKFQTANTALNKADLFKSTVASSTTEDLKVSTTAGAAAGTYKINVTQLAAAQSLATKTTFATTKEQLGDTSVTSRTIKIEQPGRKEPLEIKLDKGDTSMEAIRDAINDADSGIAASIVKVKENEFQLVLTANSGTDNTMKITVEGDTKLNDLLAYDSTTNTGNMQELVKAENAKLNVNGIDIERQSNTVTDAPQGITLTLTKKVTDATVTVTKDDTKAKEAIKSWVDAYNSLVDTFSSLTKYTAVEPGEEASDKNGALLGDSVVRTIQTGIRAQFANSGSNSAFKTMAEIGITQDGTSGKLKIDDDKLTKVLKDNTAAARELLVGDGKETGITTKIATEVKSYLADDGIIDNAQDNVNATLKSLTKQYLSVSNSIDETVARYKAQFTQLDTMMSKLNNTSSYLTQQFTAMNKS
# Variants of: B1
# Settings: with flid_salty fliD
row,Variant,effect of a mutation on the interaction
1,E75A,decreasing interaction strength
2,K79A,disrupting interaction strength
